Results on 95 variants are retold here after the supplement of paper PMC10567573.

First the molecules themselves.
B1: UFD1L (parent)
chain: EAGGRFVAFSGEGQSLRKKGRKP
B2: MMP1 (parent)
chain: YTPDLPRADVDHAIEKAFQLWSNV
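Also: lentivirally expressed fusions sorted by FACS into six bins by GFP to DsRed ratio, PSI derived from sequencing read proportions per bin multiplied by bin number.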

One series covers variants of B1. Description: protein stability index of a GFP-peptide fusion (GPS, HEK-293T) (PSI 1-6); higher = more stable. Conditions: c terminus: native.
Take EAGQRFVAFSGEGQSLRKKGRKP [G4Q]: the protein stability index came out at 1.92.

Turning to EAGKRFVAFSGEGQSLRKKGRKP [G4K], the protein stability index was 2.58. Same read-out and setting: with EAGNRFVAFSGEGQSLRKKGRKP [G4N] the figure was 1; with EAGDRFVAFSGEGQSLRKKGRKP [G4D], 2.5. Regarding EAGHRFVAFSGEGQSLRKKGRKP [G4H], the protein stability index stood at 2.12. The same measure, in the same setting: as for EAGTRFVAFSGEGQSLRKKGRKP [G4T], the figure is 1.5.

As to EAGLRFVAFSGEGQSLRKKGRKP [G4L], the protein stability index was found to be 1.25. With EAGSRFVAFSGEGQSLRKKGRKP [G4S], the protein stability index came to 3.12. Still for that read-out and setting: as for EADGRFVAFSGEGQSLRKKGRKP [G3D], the figure is 1.88; as for EATGRFVAFSGEGQSLRKKGRKP [G3T], 2.14; as for EACGRFVAFSGEGQSLRKKGRKP [G3C], 1.6. Still for that read-out and setting: with EAMGRFVAFSGEGQSLRKKGRKP [G3M] the figure was 2.11.

Take EAQGRFVAFSGEGQSLRKKGRKP [G3Q]: the protein stability index was 2.16. The same measure, in the same setting: with EANGRFVAFSGEGQSLRKKGRKP [G3N] the figure was 1.63; with EASGRFVAFSGEGQSLRKKGRKP [G3S], 1.82.

Consider EAWGRFVAFSGEGQSLRKKGRKP [G3W], for which the protein stability index came to 1.67. On the same count and under the same terms, as for EALGRFVAFSGEGQSLRKKGRKP [G3L], the figure is 3.08. Same read-out and setting: as for EAPGRFVAFSGEGQSLRKKGRKP [G3P], the figure is 1.24; as for EAEGRFVAFSGEGQSLRKKGRKP [G3E], 2.71; as for EAGGRTVAFSGEGQSLRKKGRKP [F6T], 4.93. With EAGGRPVAFSGEGQSLRKKGRKP [F6P], the protein stability index is 3.15.

For EAGGRKVAFSGEGQSLRKKGRKP [F6K], the protein stability index was found to be 2.25. The same measure, in the same setting: as for EAGGRMVAFSGEGQSLRKKGRKP [F6M], the figure is 1.81; as for EAGGRGVAFSGEGQSLRKKGRKP [F6G], 2.2; as for EAGGRYVAFSGEGQSLRKKGRKP [F6Y], 2.38. On to EAGGRSVAFSGEGQSLRKKGRKP [F6S], for which the protein stability index was 2.41. The same measure, in the same setting: as for EAGGRQVAFSGEGQSLRKKGRKP [F6Q], the figure is 2.17; as for EAGGRHVAFSGEGQSLRKKGRKP [F6H], 1.75; as for EAGGRAVAFSGEGQSLRKKGRKP [F6A], 3.06. Same read-out and setting: as for EAGGRDVAFSGEGQSLRKKGRKP [F6D], the figure is 4.59. The same measure, in the same setting: with GAGGRFVAFSGEGQSLRKKGRKP [E1G] the figure was 2.5; with DAGGRFVAFSGEGQSLRKKGRKP [E1D], 2.33. As for TAGGRFVAFSGEGQSLRKKGRKP [E1T], the protein stability index was 2.17. On to YAGGRFVAFSGEGQSLRKKGRKP [E1Y], for which the protein stability index stood at 3.86. Same read-out and setting: as for LAGGRFVAFSGEGQSLRKKGRKP [E1L], the figure is 1.92; as for CAGGRFVAFSGEGQSLRKKGRKP [E1C], 2.5; as for EAGGRFVIFSGEGQSLRKKGRKP [A8I], 1.11.

As to EAGGRFVQFSGEGQSLRKKGRKP [A8Q], the protein stability index was determined as 2.18. Still for that read-out and setting: with EAGGRFVLFSGEGQSLRKKGRKP [A8L] the figure was 1.5. On to EAGGRFVHFSGEGQSLRKKGRKP [A8H], for which the protein stability index came to 1.34. For the variant EAGGRFVNFSGEGQSLRKKGRKP [A8N], the protein stability index was 1.41. Turning to EAGGRFVFFSGEGQSLRKKGRKP [A8F], the protein stability index amounted to 2.8.

ENGGRFVAFSGEGQSLRKKGRKP [A2N]: the protein stability index was determined as 1.23. On to EPGGRFVAFSGEGQSLRKKGRKP [A2P], for which the protein stability index was 2.55.

In the case of EIGGRFVAFSGEGQSLRKKGRKP [A2I], the protein stability index came to 3.

On to ESGGRFVAFSGEGQSLRKKGRKP [A2S], for which the protein stability index was determined as 1.82. Turning to EYGGRFVAFSGEGQSLRKKGRKP [A2Y], the protein stability index was determined as 2.35. Still for that read-out and setting: with EDGGRFVAFSGEGQSLRKKGRKP [A2D] the figure was 3.92; with ETGGRFVAFSGEGQSLRKKGRKP [A2T], 1.64. Consider EHGGRFVAFSGEGQSLRKKGRKP [A2H], for which the protein stability index was 1.15.

For ERGGRFVAFSGEGQSLRKKGRKP [A2R], the protein stability index was determined as 1.1. Still for that read-out and setting: as for EAGGQFVAFSGEGQSLRKKGRKP [R5Q], the figure is 3.3. On to EAGGKFVAFSGEGQSLRKKGRKP [R5K], for which the protein stability index worked out at 2.01.

Regarding EAGGIFVAFSGEGQSLRKKGRKP [R5I], the protein stability index was determined as 1.48. On the same count and under the same terms, with EAGGAFVAFSGEGQSLRKKGRKP [R5A] the figure was 3.01; with EAGGLFVAFSGEGQSLRKKGRKP [R5L], 2.46; with EAGGSFVAFSGEGQSLRKKGRKP [R5S], 3.17.

In the case of EAGGMFVAFSGEGQSLRKKGRKP [R5M], the protein stability index was determined as 1.85. Same read-out and setting: with EAGGPFVAFSGEGQSLRKKGRKP [R5P] the figure was 3.69; with EAGGFFVAFSGEGQSLRKKGRKP [R5F], 2.14. Same read-out and setting: as for EAGGNFVAFSGEGQSLRKKGRKP [R5N], the figure is 2.6; as for EAGGYFVAFSGEGQSLRKKGRKP [R5Y], 1.48. Still for that read-out and setting: as for EAGGDFVAFSGEGQSLRKKGRKP [R5D], the figure is 4.49; as for EAGGEFVAFSGEGQSLRKKGRKP [R5E], 3.18. Take EAGGTFVAFSGEGQSLRKKGRKP [R5T]: the protein stability index amounted to 3.2. Turning to EAGGRFDAFSGEGQSLRKKGRKP [V7D], the protein stability index worked out at 3.75.

As for EAGGRFHAFSGEGQSLRKKGRKP [V7H], the protein stability index is 1.37. The same measure, in the same setting: with EAGGRFGAFSGEGQSLRKKGRKP [V7G] the figure was 1.39; with EAGGRFCAFSGEGQSLRKKGRKP [V7C], 2.03; with EAGGRFFAFSGEGQSLRKKGRKP [V7F], 1.9. On the same count and under the same terms, with EAGGRFLAFSGEGQSLRKKGRKP [V7L] the figure was 1.5; with EAGGRFIAFSGEGQSLRKKGRKP [V7I], 1.9. The same measure, in the same setting: as for EAGGRFYAFSGEGQSLRKKGRKP [V7Y], the figure is 1.12; as for EAGGRFNAFSGEGQSLRKKGRKP [V7N], 2.18; as for EAGGRFSAFSGEGQSLRKKGRKP [V7S], 1.72. EAGGRFAAFSGEGQSLRKKGRKP [V7A]: the protein stability index came out at 2.69. Regarding EAGGRFTAFSGEGQSLRKKGRKP [V7T], the protein stability index was 1.18. Same read-out and setting: as for EAGGRFEAFSGEGQSLRKKGRKP [V7E], the figure is 2.91.

Another series covers variants of B2. The series is described as above. The conditions noted are these: c terminus: a fixed tail appended.
Regarding YTPDLPRADVDHAIEKAFILWSNV [Q19I], the protein stability index was 2.33. The same measure, in the same setting: with YTPDLPRADVDHAIEKAFHLWSNV [Q19H] the figure was 1.97.

With YTPDLPRADVDHAIEKAFLLWSNV [Q19L], the protein stability index turned out to be 1.05. For the variant YTPDLPRADVDHAIEKAFVLWSNV [Q19V], the protein stability index was determined as 2.66. Take YTPDLPRADVDHAIEKAFWLWSNV [Q19W]: the protein stability index is 1.96. In the case of YTPDLPRADVDHAIEKAFGLWSNV [Q19G], the protein stability index is 1.75. In the case of YTPDLPRADVDHAIEKAFDLWSNV [Q19D], the protein stability index is 2.5. Still for that read-out and setting: with YTPDLPRADVDHAIEKAFELWSNV [Q19E] the figure was 1.98. On the same count and under the same terms, with YTPDLPRADVDHAIEKAFRLWSNV [Q19R] the figure was 2.15; with YTPDLPRADVDHAIEKAFYLWSNV [Q19Y], 1.87; with YTPDLPRADVDHAIEKAFPLWSNV [Q19P], 1.52. On the same count and under the same terms, with YTPDLPRADVDHAIEKAFCLWSNV [Q19C] the figure was 3.82; with YTPDLPRADVDHAIEKAFFLWSNV [Q19F], 2.43; with YTPDLPRADVDHAIEKAFTLWSNV [Q19T], 3.63.

Regarding YTPDLPRADVDHAIEKAFSLWSNV [Q19S], the protein stability index amounted to 1.7. Same read-out and setting: with YTPDLPRADVDHAIEKAFKLWSNV [Q19K] the figure was 1.86; with YTPDLPRADVDHAIEKAFNLWSNV [Q19N], 2.82.
